Molecular target: HER2 (human, UniProt P04626 23-1255)
Test: cell-based or functional assay

| EC50 Cytolysis (ng/mL), +MMP2; TDCC of SKOV-3 cells with pan T cells [ng/mL] | EC50 Cytolysis (ng/mL), -MMP2; TDCC of SKOV-3 cells with pan T cells [ng/mL] | Binder |
| --- | --- | --- |
| 0.205 | – | CD3ε(1-27)-MMP-2csV3-aCD3-aHER2-Xbody, digested with MMP-2 (bispecific antibody) chain 1: not shown chain 2: LAGEVQLVESGGGLVQPGGSLKLSCAASGFTFNSYAMNWVRQAPGKGLEWVARIRSKYNNYATYYADSVKGRFTISRDDSKNTAYLQMNNLKTEDTAVYYCVRHGNFGNSYVSWWAYWGQGTLVTVSSGGGGSGGGGSELVMTQTPSSLSASLGDRVTISCRASQDISNYLNWYQQKPDGTVKLLIYYTSRLHSGVPSRFSGSGSGTDYSLTISNLEQEDIATYFCQQGNTLPLTFGAGTKLEIKASTKGPSVFPLAPCSRSTSESTAALGCLVKDYFPEPVTVSWNSGALTSGVHTFPAVLQSSGLYSLSSVVTVPSSNFGTQTYTCNVDHKPSNTKVDKTVGGGGSAAAEPKSSDKTHTCPPCPAPEAAGGPSVFLFPPKPKDTLMISRTPEVTCVVVDVSHEDPEVKFNWYVDGVEVHNAKTKPREEQYNSTYRVVSVLTVLHQDWLNGKEYKCKVSNKALPAPIEKTISKAKGQPREPQVYTLPPSREEMTKNQVSLTCLVKGFYPSDIAVEWESNGQPENNYDTTPPVLDSDGSFFLYSDLTVDKSRWQQGNVFSCSVMHEALHNHYTQKSLSLSPGK |
| – | 0.128 | aCD3-aHER2-Xbody (bispecific antibody) chain 1: not shown chain 2: EVQLVESGGGLVQPGGSLKLSCAASGFTFNSYAMNWVRQAPGKGLEWVARIRSKYNNYATYYADSVKGRFTISRDDSKNTAYLQMNNLKTEDTAVYYCVRHGNFGNSYVSWWAYWGQGTLVTVSSGGGGSGGGGSELVMTQTPSSLSASLGDRVTISCRASQDISNYLNWYQQKPDGTVKLLIYYTSRLHSGVPSRFSGSGSGTDYSLTISNLEQEDIATYFCQQGNTLPLTFGAGTKLEIKASTKGPSVFPLAPCSRSTSESTAALGCLVKDYFPEPVTVSWNSGALTSGVHTFPAVLQSSGLYSLSSVVTVPSSNFGTQTYTCNVDHKPSNTKVDKTVGGGGSAAAEPKSSDKTHTCPPCPAPEAAGGPSVFLFPPKPKDTLMISRTPEVTCVVVDVSHEDPEVKFNWYVDGVEVHNAKTKPREEQYNSTYRVVSVLTVLHQDWLNGKEYKCKVSNKALPAPIEKTISKAKGQPREPQVYTLPPSREEMTKNQVSLTCLVKGFYPSDIAVEWESNGQPENNYDTTPPVLDSDGSFFLYSDLTVDKSRWQQGNVFSCSVMHEALHNHYTQKSLSLSPGK |
| – | 2.62 | CD3ε(1-27)-MMP-2csV2-aCD3-aHER2-Xbody (bispecific antibody) chain 1: not shown chain 2: QDGNEEMGGITQTPYKVSISGTTVILTGGGGSGGGGSGGGGSGGPLGMLSQSEVQLVESGGGLVQPGGSLKLSCAASGFTFNSYAMNWVRQAPGKGLEWVARIRSKYNNYATYYADSVKGRFTISRDDSKNTAYLQMNNLKTEDTAVYYCVRHGNFGNSYVSWWAYWGQGTLVTVSSGGGGSGGGGSELVMTQTPSSLSASLGDRVTISCRASQDISNYLNWYQQKPDGTVKLLIYYTSRLHSGVPSRFSGSGSGTDYSLTISNLEQEDIATYFCQQGNTLPLTFGAGTKLEIKASTKGPSVFPLAPCSRSTSESTAALGCLVKDYFPEPVTVSWNSGALTSGVHTFPAVLQSSGLYSLSSVVTVPSSNFGTQTYTCNVDHKPSNTKVDKTVGGGGSAAAEPKSSDKTHTCPPCPAPEAAGGPSVFLFPPKPKDTLMISRTPEVTCVVVDVSHEDPEVKFNWYVDGVEVHNAKTKPREEQYNSTYRVVSVLTVLHQDWLNGKEYKCKVSNKALPAPIEKTISKAKGQPREPQVYTLPPSREEMTKNQVSLTCLVKGFYPSDIAVEWESNGQPENNYDTTPPVLDSDGSFFLYSDLTVDKSRWQQGNVFSCSVMHEALHNHYTQKSLSLSPGK |
| 6.73 | 6.12 | CD3ε(1-27)-aCD3-aHER2-Xbody (bispecific antibody) chain 1: not shown chain 2: QDGNEEMGGITQTPYKVSISGTTVILTGGGGSGGGGSGGGGSEVQLVESGGGLVQPGGSLKLSCAASGFTFNSYAMNWVRQAPGKGLEWVARIRSKYNNYATYYADSVKGRFTISRDDSKNTAYLQMNNLKTEDTAVYYCVRHGNFGNSYVSWWAYWGQGTLVTVSSGGGGSGGGGSELVMTQTPSSLSASLGDRVTISCRASQDISNYLNWYQQKPDGTVKLLIYYTSRLHSGVPSRFSGSGSGTDYSLTISNLEQEDIATYFCQQGNTLPLTFGAGTKLEIKASTKGPSVFPLAPCSRSTSESTAALGCLVKDYFPEPVTVSWNSGALTSGVHTFPAVLQSSGLYSLSSVVTVPSSNFGTQTYTCNVDHKPSNTKVDKTVGGGGSAAAEPKSSDKTHTCPPCPAPEAAGGPSVFLFPPKPKDTLMISRTPEVTCVVVDVSHEDPEVKFNWYVDGVEVHNAKTKPREEQYNSTYRVVSVLTVLHQDWLNGKEYKCKVSNKALPAPIEKTISKAKGQPREPQVYTLPPSREEMTKNQVSLTCLVKGFYPSDIAVEWESNGQPENNYDTTPPVLDSDGSFFLYSDLTVDKSRWQQGNVFSCSVMHEALHNHYTQKSLSLSPGK |
| 0.22 | – | CD3ε(1-27)-MMP-2csV2-aCD3-aHER2-Xbody, digested with MMP-2 (bispecific antibody) chain 1: not shown chain 2: MLSQSEVQLVESGGGLVQPGGSLKLSCAASGFTFNSYAMNWVRQAPGKGLEWVARIRSKYNNYATYYADSVKGRFTISRDDSKNTAYLQMNNLKTEDTAVYYCVRHGNFGNSYVSWWAYWGQGTLVTVSSGGGGSGGGGSELVMTQTPSSLSASLGDRVTISCRASQDISNYLNWYQQKPDGTVKLLIYYTSRLHSGVPSRFSGSGSGTDYSLTISNLEQEDIATYFCQQGNTLPLTFGAGTKLEIKASTKGPSVFPLAPCSRSTSESTAALGCLVKDYFPEPVTVSWNSGALTSGVHTFPAVLQSSGLYSLSSVVTVPSSNFGTQTYTCNVDHKPSNTKVDKTVGGGGSAAAEPKSSDKTHTCPPCPAPEAAGGPSVFLFPPKPKDTLMISRTPEVTCVVVDVSHEDPEVKFNWYVDGVEVHNAKTKPREEQYNSTYRVVSVLTVLHQDWLNGKEYKCKVSNKALPAPIEKTISKAKGQPREPQVYTLPPSREEMTKNQVSLTCLVKGFYPSDIAVEWESNGQPENNYDTTPPVLDSDGSFFLYSDLTVDKSRWQQGNVFSCSVMHEALHNHYTQKSLSLSPGK |
| – | 5.49 | CD3ε(1-27)-MMP-2csV3-aCD3-aHER2-Xbody (bispecific antibody) chain 1: not shown chain 2: QDGNEEMGGITQTPYKVSISGTTVILTGGGGSGGGGSGGGGSPLGLAGEVQLVESGGGLVQPGGSLKLSCAASGFTFNSYAMNWVRQAPGKGLEWVARIRSKYNNYATYYADSVKGRFTISRDDSKNTAYLQMNNLKTEDTAVYYCVRHGNFGNSYVSWWAYWGQGTLVTVSSGGGGSGGGGSELVMTQTPSSLSASLGDRVTISCRASQDISNYLNWYQQKPDGTVKLLIYYTSRLHSGVPSRFSGSGSGTDYSLTISNLEQEDIATYFCQQGNTLPLTFGAGTKLEIKASTKGPSVFPLAPCSRSTSESTAALGCLVKDYFPEPVTVSWNSGALTSGVHTFPAVLQSSGLYSLSSVVTVPSSNFGTQTYTCNVDHKPSNTKVDKTVGGGGSAAAEPKSSDKTHTCPPCPAPEAAGGPSVFLFPPKPKDTLMISRTPEVTCVVVDVSHEDPEVKFNWYVDGVEVHNAKTKPREEQYNSTYRVVSVLTVLHQDWLNGKEYKCKVSNKALPAPIEKTISKAKGQPREPQVYTLPPSREEMTKNQVSLTCLVKGFYPSDIAVEWESNGQPENNYDTTPPVLDSDGSFFLYSDLTVDKSRWQQGNVFSCSVMHEALHNHYTQKSLSLSPGK |
| – | 0.184 | aCD3-aHER2-mxb (bispecific antibody) chain 1: EVQLLEQSGAELVRPGALVKLSCKASGFKIKDYFVNWVKQRPEQGLEWIGWIDPENDNSLYGPNFQDKASITADTSSNTGYLQLSGLTSEDTAVYYCALYYGSRGDAMDYWGQGTTVTVSSGGGGSGGGGSGGGGSELVMTQTPSSLSASLGDRVTISCRASQDISNYLNWYQQKPDGTVKLLIYYTSRLHSGVPSRFSGSGSGTDYSLTISNLEQEDIATYFCQQGNTLPLTFGAGTKLEIKAAAEPKSSDKTHTCPPCPAPEAAGGPSVFLFPPKPKDTLMISRTPEVTCVVVDVSHEDPEVKFNWYVDGVEVHNAKTKPREEQYNSTYRVVSVLTVLHQDWLNGKEYKCKVSNKALPAPIEKTISKAKGQPREPQVYTLPPSRKEMTKNQVSLTCLVKGFYPSDIAVEWESNGQPENNYKTTPPVLKSDGSFFLYSKLTVDKSRWQQGNVFSCSVMHEALHNHYTQKSLSLSPGKAAAHHHHHH chain 2: not shown |

From patent US20170247476A1 (Amgen, published 2017)
